The record followed here is US20230192857A1.

In experiment [1] the target is phosphopeptide corresponding to Tyr1034 within the JAK1 kinase domain activation loop (UniProt P23458). Briefly: ITC.
The target in experiment [2] is JAK1 kinase domain (JH1) (Homo sapiens) (UniProt P23458). Briefly: cell-based or functional assay.
The target in experiment [3] is JAK1-Y1034 phosphopeptide with an alanine substitution at the +3 position (UniProt P23458). Briefly: ITC.

pKd: −log10 of the molar value.

In turn, “human CIS lacking the N-terminal 34 residues (ΔN34), trimeric complex with elongins B and C (from UniProt Q9NSE2 35-258; Q15370 1-118; Q15369 17-112)” gave a negative-log Kd (pKd) in experiment [1] of 5.00 to 5.66. In experiment [2], “hCIS-SH2-BC complex (recombinant trimeric complex of human GST-CIS-SH2 construct with Elongins B and C) (from UniProt Q9NSE2 66-258; Q15370 1-118; Q15369 17-112)” came in with an efficiency of JAK1 JH1 kinase inhibition relative to SOCS1 of 100 fold lower and a fold selectivity of kinase inhibition, JAK1 against JAK2, JAK3 or TYK2 (JH1 domains) of over 20 fold. Turning to “human CIS lacking both the N-terminal region and the PEST motif (ΔNT/ΔPEST), trimeric complex with elongins B and C (from UniProt Q9NSE2 67-258; Q15370 1-118; Q15369 17-112)”, the fold reduction of binding against the wild-type JAK1-Y1034 phosphopeptide in experiment [3] came out at 4 fold.
